Reference: publication PMC11931385, “Structural and functional analysis of cancer-associated missense variants in the retinoblastoma protein pocket domain” (The Journal of Biological Chemistry, 2025)
No end group written: not given here. TMR = tetramethyl rhodamine dye

T1: Rb^P E675Q (human, UniProt P06400 380-788, E675Q)
T1 construct: also called variant 56
T1 sequence (looked up): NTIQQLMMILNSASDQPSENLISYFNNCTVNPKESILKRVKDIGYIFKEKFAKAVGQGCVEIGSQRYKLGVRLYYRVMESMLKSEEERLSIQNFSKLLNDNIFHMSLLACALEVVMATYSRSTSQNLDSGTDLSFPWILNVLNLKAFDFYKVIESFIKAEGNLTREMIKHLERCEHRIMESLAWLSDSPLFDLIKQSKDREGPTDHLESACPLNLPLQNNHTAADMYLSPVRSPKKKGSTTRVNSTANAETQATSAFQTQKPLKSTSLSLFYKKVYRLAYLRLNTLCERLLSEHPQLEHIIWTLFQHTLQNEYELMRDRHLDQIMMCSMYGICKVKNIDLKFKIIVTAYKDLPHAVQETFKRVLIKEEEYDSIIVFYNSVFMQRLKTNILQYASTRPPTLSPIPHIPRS

T2: Rb^P S588F (human, UniProt P06400 380-788, S588F)
T2 construct: also called variant 34
T2 sequence (looked up): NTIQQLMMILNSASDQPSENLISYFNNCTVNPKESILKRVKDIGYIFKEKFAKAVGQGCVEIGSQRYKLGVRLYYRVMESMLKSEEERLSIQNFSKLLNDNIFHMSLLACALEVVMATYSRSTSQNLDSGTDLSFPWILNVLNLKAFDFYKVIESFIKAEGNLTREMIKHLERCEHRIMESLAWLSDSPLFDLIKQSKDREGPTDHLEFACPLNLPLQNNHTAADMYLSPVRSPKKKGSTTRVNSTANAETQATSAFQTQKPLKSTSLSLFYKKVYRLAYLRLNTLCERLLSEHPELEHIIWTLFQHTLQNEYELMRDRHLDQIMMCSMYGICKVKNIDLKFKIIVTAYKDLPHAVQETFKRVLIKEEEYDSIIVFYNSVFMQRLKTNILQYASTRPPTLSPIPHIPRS

T3: Rb^P D584Y (human, UniProt P06400 380-788, D584Y)
T3 construct: also called variant 32
T3 sequence (looked up): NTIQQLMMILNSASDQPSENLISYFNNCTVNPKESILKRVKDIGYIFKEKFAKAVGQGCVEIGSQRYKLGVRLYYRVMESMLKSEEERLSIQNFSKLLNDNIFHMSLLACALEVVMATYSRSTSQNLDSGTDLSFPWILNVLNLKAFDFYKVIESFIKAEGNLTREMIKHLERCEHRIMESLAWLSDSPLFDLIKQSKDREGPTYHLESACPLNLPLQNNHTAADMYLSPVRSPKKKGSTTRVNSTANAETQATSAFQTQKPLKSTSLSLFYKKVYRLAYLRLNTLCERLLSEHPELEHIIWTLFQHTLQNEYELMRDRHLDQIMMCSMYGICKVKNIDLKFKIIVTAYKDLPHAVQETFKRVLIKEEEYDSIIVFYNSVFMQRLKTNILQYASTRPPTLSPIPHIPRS

T4: Rb^P E533K (human, UniProt P06400 380-788, E533K)
T4 construct: also called variant 22
T4 sequence (looked up): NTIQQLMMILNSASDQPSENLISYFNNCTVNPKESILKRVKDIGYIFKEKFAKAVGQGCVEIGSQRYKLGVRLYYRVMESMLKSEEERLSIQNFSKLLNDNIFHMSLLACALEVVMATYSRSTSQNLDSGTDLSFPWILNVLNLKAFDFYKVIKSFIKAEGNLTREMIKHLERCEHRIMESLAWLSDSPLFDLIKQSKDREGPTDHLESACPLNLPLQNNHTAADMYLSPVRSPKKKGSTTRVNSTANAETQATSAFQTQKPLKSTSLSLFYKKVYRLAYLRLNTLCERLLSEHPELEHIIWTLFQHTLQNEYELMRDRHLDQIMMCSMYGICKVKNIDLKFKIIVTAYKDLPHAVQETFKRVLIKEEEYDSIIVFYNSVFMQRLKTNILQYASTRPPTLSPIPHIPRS

T5: Rb^P M761L (human, UniProt P06400 380-788, M761L)
T5 construct: also called variant 74
T5 sequence (looked up): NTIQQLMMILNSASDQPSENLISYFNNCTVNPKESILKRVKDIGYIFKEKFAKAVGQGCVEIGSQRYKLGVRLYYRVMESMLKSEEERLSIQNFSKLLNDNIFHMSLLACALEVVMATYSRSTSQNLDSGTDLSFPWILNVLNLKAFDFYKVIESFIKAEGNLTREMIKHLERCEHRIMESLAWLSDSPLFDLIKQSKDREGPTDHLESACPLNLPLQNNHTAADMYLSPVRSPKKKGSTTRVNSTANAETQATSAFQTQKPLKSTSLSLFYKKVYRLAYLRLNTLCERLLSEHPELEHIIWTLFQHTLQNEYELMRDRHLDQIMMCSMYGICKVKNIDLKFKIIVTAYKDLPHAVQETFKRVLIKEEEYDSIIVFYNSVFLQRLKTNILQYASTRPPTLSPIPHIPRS

B1: TMR-E2F1^TD, peptide of the E2F1 transactivation domain (peptide)
peptide: {TMR}-GEGIRDLFDCDFGDLTPLD
notes: also called E2F^TD; source: synthetic peptide, bought: GenScript
B2: TMR-E7^LxCxE, LxCxE peptide of the E7 oncoprotein from HPV (peptide)
peptide: DLYCYEQLN
modifications: also: TMR label, position not given here
notes: source: synthetic peptide, bought: GenScript

Columns and labels:
Assay in all cases: fluorescence polarisation; 25 °C; unlabeled Rb^P titrated against 1.5 nM TMR-E2F1^TD or 7.5 nM TMR-E7^LxCxE; 25 mM Tris pH 8.0, 200 mM NaCl, 1 mM DTT, 0.1% Tween-20; 2 min incubation; quadratic fit; apparent Kd for the variants, Kd for WT
Conditions in all cases: both partners purified
[1] = target: T1, Rb^P E675Q
[2] = target: T2, Rb^P S588F
[3] = target: T3, Rb^P D584Y
[4] = target: T4, Rb^P E533K
[5] = target: T5, Rb^P M761L

Binder	Kd [1] [nM]	Kd [2] [nM]	Kd [3] [nM]	Kd [4] [nM]	Kd [5] [nM]
B1	35	36	33	810	32
B2	20	5	12	6	1.3
